Test: label from the status in PepcDB records
In the case of “MPAQTNLKPVLTAAQVNVLMETVYPQLNEQFKYYEAIDVFPGGCTVRLNAGERHLRPGGTVSGPSLFTLADIGGYVCVLSHAGPDALSVTVNLDINFVRKAEAGPIDGHCRILKLGKSLMVFAIDIVAGPEGQTIAHATGTYSIPPKRIGDVVK”, the protein production is reported as “failed”.
For “MPASCQETARLLLRAPTLDDLPQACAIHGDPQTNRFNPNGPINAAACADKLHGWIEHWQQHGFGYWAIALRSDPQRLIGFGGIMQGFFGHEPGLNLYFRLRPEAWGQGYAAEMARAALHLAFSELHAPRVTGLVRPDNLPSRRALERLGLSLDGELDDFPGQAPSLLYRISAPDNPVPG”, the protein production was “failed”.
For “MPASVMTDLSAAWAAFEAHDYALAERQAQALLAHPATASGARFMLGYVYAFMDRFDEARASFQALQQQAQKSGDHTAEHRALHQVGMVERMAGNWDAARRCFLEERELLASLPEDPLAASANAYEVATVALHFGDLAGARQEYEKSLVYAQQADDQVAIACAFRGLGDLAQQEKNLLEAQQHWLRARDIFAELEDSEAVNELMTRLNGTEG”, the protein production was “failed”.
In the case of “MPAVARIDPKTIFTPDEWARLTHRSSARGLWLVAHAWGCIALAVALVTIWPNPLTWLIAVMIVGTRQLGLAILMHEAAHGGLHCNPKLNEWIGQWLCAVPVGADLPAYRRYHLQHHKYTQQPEDPDLVLSAPFPISKDSFVRKAIRDLTGQTFVKQRLPALKALFAPADSGAPKHDSFVASGKARTQRFLAANAVLLALFWLAGAGVWFVGVWLVAMATWLPLVTRVRNIAEHACTSTGADPFSQARTTLANPIERALIAPYWVNYHAEHHLFMYLPCYNLPEAHRLLRDKGLIDRVTVAPSYRDVLKLATTRPRAVAAE”, the protein production is reported as “failed”.
In the case of “MPCVQAQYGSSPQGASPASQSYSYHSSGEYSSDFLTPEFVKFSMDLTNTEITATTSLPSFSTFMDNYSTGYDVKPPCLYQMPLSGQQSSIKVEDIQMHNYQQHSHLPPQSEEMMPHSGSVYYKPSSPPTPTTPGFQVQHSPMWDDPGSLHNFHQNYVATTHMIEQRKTPVSRLSLFSFKQSPPGTPVSSCQMRFDGPLHVPMNPEPAGSHHVVDGQTFAVPNPIRKPASMGFPGLQIGHASQLLDTQVPSPPSRGSPSNEGLCAVCGDNAACQHYGVRTCEGCKGFFKRTVQKNAKYVCLANKNCPVDKRRRNRCQYCRFQKCLAVGMVKEVVRTDSLKGRRGRLPSKPKSPQEPSPPSPPVSLISALVRAHVDSNPAMTSLDYSRFQANPDYQMSGDDTQHIQQFYDLLTGSMEIIRGWAEKIPGFADLPKADQDLLFESAFLELFVLRLAYRSNPVEGKLIFCNGVVLHRLQCVRGFGEWIDSIVEFSSNLQNMNIDISAFSCIAALAMVTERHGLKEPKRVEELQNKIVNCLKDHVTFNNGGLNRPNYLSKLLGKLPELRTLCTQGLQRIFYLKLEDLVPPPAIIDKLFLDTLPF”, the protein production is reported as “not failed”.
With “MPDASAENPWLPLRQLTPARIALGRTGTSLPTRPQLDFQYAHAQARDAVHLPFDHAAISDGLRQRGRDSLLLHSAAADRHVYLQRPDLGRRLDEASVQRLREHAAGYDGQIDLAIVVADGLSALAVQRHTLPFLERLEEQALAEGWSLSPVVLVEQGRVAVADEIGELLRAKMSVILIGERPGLSSPDSLGLYFTWAPRVGLTDAYRNCISNVRLEGLSYGMAAHRLLYLMREACRRQLSGVNLKDEAEVQALDGEAPRTGNFLLAR” the protein production was “failed”.
In the case of “MPDLGLTDAESLGHCLFDTGFGVCGIAWRAFEGKDEAPVVTLFLLPEATAAGTAAAMARRCGGSPTVPPPAIAEVIEKVRRHFRGDLQDFSRVRVEPDGAGPFARAVYSAARDVPAGQIRTYGELARALNRPAAARAVGQALGRNPVPLIIPCHRILGAGGKLGGFSAHGGVATKARMLRLEGVAV”, the protein production is reported as “failed”.
For “MPDLMHSELTMSGPEQSLLAGALLGAGLPADAHRHLELAGRDYQSEALAEQHLREAHLLAPDHAAVLIGLYRFYFYKGRLGEALEVAQACLCKAARDNGLASDWRKVRRGDAEFSSYSAVLPRFYLFALKAYAYLQMRLGQLDEGHAAVEKLLELDPTDKVGAAVLLDVWRRIGLEHHHHHH”, the protein production was “not failed”.
For “MPECRNCGATLREEYRFCPMCATPQTDEASRRLNQYIEQRATKRQASGGTASSNGAENDGTLRGRLQYAAGYVAIVLGLATVTAVAGVFFLLAGLFLLPPIHGRIESAVGRRLGPAPTAGVAGVLAAFGLVVFVFL”, the protein production was “failed”.
For “MPEIHQSIAQHYHERTKYDPETIASKSQRLDWAKQPVPFKEYKIGSAIDLKPYLQETPEVFVNDTNGQWWQRLSRLLFRSYGLTARMPSMGNTVYLRAAPSAGGLYPAEVYVVSRGTPLLSPGLYNYQCRTHSLIHYWESDVWQSLQEACFWHPALESTQLAIIVTAVFYRSAWRYEDRAYRRICLDTGHLLGNIELSAAITDYRPHLIGGFIDEAVNDLLYIDPLQEGAIAVLPLADLLDIQQNISPGCTALPSATETNYPQVPDGELLKYFHHHTQISASITGKLNLPTVIQEKSLEDKYNFPFCLKISTVSAPIYWGENLSDLEITMHKRRSTRAYNGEELTFDELKALLDFTYQPQNYIDQSLDNSPDYFDLNLIETFIAVCGVQGLEAGCYYYAPKAQELRQIRFKNFRRELHFLCLGQELGRDAAAVIFHTSDLKSAIAQYGDRVYRYLHMDAGHLGQRLNLAAIQLNLGVSGIGGFFDDQVNEVLGIPNDEAVIYITTLGRPR”, the protein production was “not failed”.
With “MPEILINYKTNREDYKRQSKYCNICMRRYKSVKKNVIILALMIVFVFVFGTVAFHLIEGWNLFDSFFFTLITVSTVGYSIPENLSQAGKVIASILISAGVTIVLYGFTSVTSMIVEGHIGEYFKSRRMRKMIDRLKDHFIVVGAGRTGRHTTLEIMKAKKPFVVIDQSEEAIARLKDFLGEEFPYVVGDATEEEILMKAGVERARSLVVTLPDDAKSTFVVLTAKSLNPNLEIVSRVSDMKALSKLVYAGADKVIATSELAGVRLAQMALNPTTISFLDILSFGEESFRIEEVVIPPESPVANKTLGEINLAKRAGTIVIAIRRGGEVIFNPTGDTKILPEDRLMVVGKSDHFEKLHRLIEEG” the protein production was “failed”.
With “MPEISPYVTKTEVQLMMAGLDYRKTNGSRDTAPKGQLPWIVDAAQAIADSTFIRVHIERKYDVDLDFGLTGRERAQAWAIERMIENQLGWVSTYFRFLEPANFERGPARAFDQAPGHLRDELRQGLREAVAANIRAVGVGRHLREEVAWLGGLSLRALDELLEDKAYLMRDAYPVGVDATAFAMLAAIMTPFFDSPLRRQAERYPRLVAYVGRMMERFYPAHPWGLRQAA” the protein production was “failed”.
In the case of “MPEITESERAYHLRKMKTRMQRVDVTGDGFISREDYELIAVRIAKIAKLSAEKAEETRQEFLRVADQLGLAPGVRISVEEAAVNATDSLLKMKGEEKAMAVIQSLIMYDCIDTDKDGYVSLPEFKAFLQAVGPDLTDDKAITCFNTLDFNKNGQISRDEFLVTVNDFLFGLEETALANAFYGDLVD”, the protein production is reported as “not failed”.
With “MPEKPTEDARFYGRRKGKPLRATRQRLLDTMLPALTLPLAGLGEGERLDPRGLFPRPVDQLWLEIGFGGGEHLVAQAAAHPEVGLIGSEVFAYGVGKALSQIDETGVDNIRLWPEDVRQVLPALPDGCLQRLFVLFPDPWPKRRHARRRMIQPARLDDFARLLADGGELRVASDDMGYVRWTLMHVTAHPAFRWTAQGPTDWRERPADWVETRYEAKALQAGRKPAYLIFRRRPRAADPGTLAEAPAGEGADNNP” the protein production was “failed”.
With “MPELILKPCEPVRSALKQDVAALEAPPTGGNVDKSATTSNSVTPATSAAPSPAPASEKGEDKDKDSEKEKDKTSAEKSEVKQEQEAEEDKKPGDVKQENPVEEAAGDTKPSDAEVKTEVAKTEPKEETKDPEVKEEPKTEEKEKEKVDDKKPIPPTTVIDDDDDDVMIVKEDGELEKPSASSPKDQKAVAAATSAATGATGK” the protein production was “failed”.
With “MPEQTYMYAYVTLPHHDQRERYTQKCYRDGRRIVLASYDLMGSERFSFKEKLRKSMKGMNESAERWVSEVRQGENLNSIDNYYRLYKGKI” the protein production was “failed”.
In the case of “MPEVIFNGPAGRLEGRYQPSKEKSAPIAIILHPHPQFGGTMNNQIVYQLFYLFQKRGFTTLRFNFRSIGRSQGEFDHGAGELSDAASALDWVQSLHPDSKSCWVAGYSFGAWIGMQLLMRRPEIEGFMSIAPQPNTYDFSFLAPCPSSGLIINGDADKVAPEKDVNGLVEKLKTQKGILITHRTLPGANHFFNGKVDELMGECEDYLDRRLNGELVPEPAAKRIR”, the protein production is reported as “not failed”.
For “MPFAIGQRWLSESENALGLGVITALDQRTVTIYFPAADETRIYAMAQAPLSRIVFSKGETLSHQAGWQGEILDVQNMNGLLFYLVKNPQDEDVIVQERDISPIISFSQAKDRLFSAQI”, the protein production was “failed”.
For “MPFCPEEFYCRITQNIESLNNIAKIQHAANTDYLTDLANRRAFFRSAESRIKEYINKKVPYCLAMIDVDFFKKVNDTYGHDSGDQVLKVIALYMRKHFGAGLTARLGGEEFAVLLHGLDADYLHNKLDDFRREIAVSSIPAGDTSISITLSLGVVFDSEDELSKQMNEADNALYAAKENGRNQIVVFGAELDDLEHHHHHH”, the protein production was “failed”.
In the case of “MPFGLKSSQSIDDKFMSITQMKNLIHYVKKNDALSHLCIYILIITGSRFKPVQHLRYEDLNFKKSCIHLNDTKNKYSKRNVKVRIKDLEYIQSVINKHPINQNGYIFHNFINFISYSAINDVLVRFCLKYKYDKYTLKSLRHTHCSYLLAKGISIQYISKRLGHADIHTTLKIYSHLIKEFEDSENSLIEKNLNDLFSDLEHHHHHH”, the protein production is reported as “not failed”.
In the case of “MPFKEYDHDFIDKNKKASSSVRLALLLSVLIIIFNLLFFKHRDFQEQLHNNPGSYTDLIALVFLFFILSCTSKISLNHTSALSIRLGLHVWICSATFDFMDEFIYQPKLVGYYVEDMLRIIGMFGVGFGVYTLIQQINNKYVEARIQSFSDELTQLPNRRFFINELKKLEAKTPYLFIIDIDNFKVINDKYGHTKGDEILSKFGHILSRFDNSEVVATRIGGEEFAIILYAGTQDRAEKLAREVLKNANKIIIKNMHHLSVSIGAGKKQPQEPTEHFMKRVDVALYQAKNTGKGKVEWALEPKEKTQ”, the protein production is reported as “failed”.
For “MPFLLTLLAFLRVLRRLLKDEKFRALLYITAFTLAIGTFFYHSVEGWDWLDSLYFSVITLTTVGYGDFTPKTNIGKFFTIIYIFIGLGILVAFVTPIGEYIVDRRLDRIQEREQKKEIPENEFDFSGVIGKLRGKK”, the protein production was “failed”.
With “MPFLYRLASLLIALLVLPVQAAEMRVALLRTSGVETLDALTVDGGSWVRRVPLSHTAVLIEHHAATLLFDTGLGRDIDAQFRADMPWWAAPLFAYQKVVPARDQLDAAGIRVDRILLSHAHWDHASGLVDFPEVPVWAPYEEIAFSRIATPPAAFPSQFRHGVRWQPYSFDPRPFMGFDESLDLFGDGRLVLVPLPGHTPGSVGLFVTLDSGRRLFFSGDTSWRLEGVEGPRQKFFAGRALVDRDPARTLAQLAKIRLLLRSDPRLSVIPAHDARVQAALGYFPHWLE” the protein production was “failed”.
In the case of “MPFSISGRKGSEMMAKLDELKQKLTAKQIQAAYLLVENELMESNNEEKRTQDEMANELGINRTTLWEWRTKNQDFIAFKSEVADSFLAEKREQVYSKLMQLILGPQPSVKAMQLYMQRFGLLTDKKVIEGDLGNATRTNAEIEEQLQKLKKLTGE”, the protein production is reported as “not failed”.
For “MPFSWLKPIDYARIFVGWASIFIIPLITLPSIIELALIVAVILFCAFGVVKMAERLAHILGDPFGSLILTLSIVIIEVILICAVMLGPADSTTAGRDSVMAVSMIIMGLVVGLCLLIGGLRHGSMPHNGVGTPTYLVLIATFSVIAFAVPAFRGEYSTGQALVISTLTAVVYGFFLFRQMGAQAGEFQEVEVAEKADDAAKWEVPFRGLILIITVLPIVLLSHDMATVMDEVLASLGAPVAMAGLIIATIVFLPETITSLKAAWTGEIQRVSNLAHGAQVSTVGLTIPAVLVIGVITGQDVVLGETPINLLLLGTTIAVTAIAFSSKKVSAVHGSVLLMLFGVYMMSMFA”, the protein production was “failed”.
